Patent US20110118172A1

Molecular target: metastin receptor (OT7T175) stably expressed on CHO cells
Assay: cell-based or functional assay

Row | Substance | Specific Activity: EC50 of the test compound based on EC50 of Metastin (45-54); agonist activity by change in intracellular calcium ion level (Fluo-4 NW, FLIPR) in receptor-expressing CHO cells
1 | Compound No. 972: dimethylaminoethylureido-D-Tyr-Hyp-Asn-Thr-Phe-AzaGly-Leu-Arg(Me)-Trp-NH2 (peptide) | 2.2
2 | Compound No. 973: iso-butylureido-D-Tyr-Hyp-Asn-Thr-Phe-AzaGly-Leu-Arg(Me)-Trp-NH2 (peptide) | 0.4
